Assay: label from the status in PepcDB records

MAGEQIKPVASGLLVLNFCMYVIVLGIGGWAMNRAIDHGFEVGPNLELPAHFSPIYFPMGNAATGFFVIFALLAGVVGAASTISGLSHIRSWTVGSLPAAATAATIAWTLTVLAMGFAWKEIELQGRNAKLRTMEAFLIILSVTQLIYIAAVHGVRRP
protein production: failed

MLDFLAANPLIALVVILAVGLAIGQIRVFGLSLGAAAVLFVALVVSTANTDIVIPMIVYQLGLAMFVYVIGLSAGPAFFSEFAKKGWKLTIFMLLLLATLIGLAWVLIKSLGLDAAIGTGMFTGALTSTPGMAAVVELIEGIDPSLASEPVIGYSLAYPGAVLGSIVVAAVGAKLLKVNHREDARKEGMITAPLVWKGVQLKPGITGRVGDLPRLAGESIIATRIVDDPHTHRLADPDLPITEGMELLINGTEEAVDRAIKALGEERETKIEDTELIYTRLTVSSPEVAGRTVAELDTVAHGFMIARIRQGDSEVVPKPDTVINYSDRIRVVVAPGRVAEVRRFLGDSEKSLADVNLLPLAIGLSLGLLLGAIPIPLPGGTTMSLGFGGGPIIAGLILGALKHTGPLTWQMPFHANRTISTLGLALFLAGVGTSAGAGFRAALTDSSSLIYMAGGLVITLASALLCAVIGMWVLRLRWDEAMGVAAGTTTNPAIISYLNGQTGTDLANRGYATVYPTAMIGKILGAQILFLLL
protein production: failed

MSPIILSITIIAYFMILFAISYIAGHKADNEGFFVGNRKSAWYIVAFAMIGSTISGVTFVSVPGMVQASGFSYLQMVLGFIVGQFIIAFILVPLFYRMNLVSIYEYLENRFGASSYKTGAWFFFISKMLGAAVRLFLVCLTLQLLIFEPFHIPFIINVILTVLIVWLYTFRGGVKSLIWTDVLKTFCLVVSVVLCIYYIASSLHLNFSGLVSTISDNDLSKMFFFDDVNDKRYFFKQFLAGVFTVIAMNGLDQDMMQRNLSCKNFRDSQKNMITSGISQFFVILLFLMLGVLLYTFTARQGIENPGKSDELFPMIATGNYFPGIVGILFIIGLIASAYSAAGSALTALTTSFTVDILNAHKKDEAALSKIRKHVHIGMAFVMGIVIFVFNLLNNTSVIDAIYTLASYTYGPILGLFAFGIFTKKQVYDPYIPLVAILSPALCYVLQRNSEAWFDGYQISYELLILNAAFTFLGLCLLIKRKSSVAPINNSLIKKH
protein production: failed

SDYEKFLLFGDSITEFAFNTRPIEDGKDQYALGAALVNEYTRKMDILQRGFKGYTSRWALKILPEILKHESNIVMATIFLGANDACSAGPQSVPLPEFIDNIRQMVSLMKSYHIRPIIIGPGLVDREKWEKEKSEEIALGYFRTNENFAIYSDALAKLANEEKVPFVALNKAFQQEGGDAWQQLLTDGLHFSGKGYKIFHDELLKVIETFYPQYHPKNMQYKLKDWRDVLDDGSNIMS
protein production: not failed

MSELGNRAKDQKKIYQRWAPVYDRVYRGILRDGHRKLAGLAAAAGTDILEIGTGTGLTLAHYPSRCRVTGIDISEHMIARAREKVRRENLRHVRALEVMDAHVLRFADKSFDVVCLPFVITLIPEPERALDECARVLRPGGEIILASKLGDGAGLQGAIEAAVAPLVRHIGWSSAFRIHRIVAWAERRGDFSTAEILPVFPNGFFKIVRLKQRGFSA
protein production: failed

KVILYARVSSSTQKDELVNQVKYLEEQVKEYDLVITDIGSGLNMKRKGFLKLLRMILNNEVSRVVVAYPDRLVRVGFEILEEVCKAHNCEIVVLNQEDKEEELVEDLMSALVSFSGKLYGMRSHEYEKVKKCAEELKNW
protein production: not failed

MVCDKCEKKLSKVIVPDKWKDGARNVTEGGGRKINENKLLSKKNRWSPYSTCTTKCMICKQQVHQDGKYCHTCAYSKGVCAMCGKQVLDTKMYKQSNV
protein production: failed

MEMNRRRSRGFMIAKLMPFCKAVKSPTPSQDLYNNVHYTSSTTTSYARQPDFNNYVTATTPLPPKVSFLLQPSLAPEGKDMEKKLNMMAEKLIGRGINGVDDCVDARAASYISSVRERFKADQYCEKLTTVISLDDEN
protein production: failed

MKQSKIRSVLQSIALLVLAGTAAAEPKLEKITHGRFEQIPVLRPDGEPQRVVIWFSGAGHVDQRTRQAELLRQDGAMVALVDTTHLYKVLAADSNHCTFSVGDVENLSRYLQAYYRDKTYRLPLLVGDGDGSGLVYAVAAQAPENILAGVVTDGLCP
protein production: failed

MPRRKTKKREEGLSAIDLANEEMGYVLSLIERTDQSLFLTGKAGTGKSTLLRHICATTHKKFVVLAPTGLAALNVGGQTLHSFFKLPLRPIPPNDPDLSTRDRRVFDVFRYTNEHKKLIRSLDLIIIDEVSMVRADVIDAIDKLLGIYRGRQERPFGGVQMLFVGDLYQLEPVVTADDADILKRFYPNPFFFSSEALRATPPVTVELTKVYRQTEQAFVQILDRIRSGRLTEQDLQDINKCVNRHYEPPKDEPVITLATKRRHVSYINERQLEQLQGDPVTLYGTIEGDFPSSSLPTEEELTLKQDAQVIFVSNDKDRRWVNGTLGIVAGFDQESETIDVCLSTGEVVTVEPCIWDNKRFSYNEQANKVEEEVLGRFVQYPLKLAWAITVHKSQGLTFDRVIIDFSEGTFAGGQAYVALSRCRSLEGMVLRAPLAGRDVIVRREIIDFYSRANDLEIINGSLLRAEAEREYAQALRLWNARHYTEAIGAFSQALARKNELDDPLFRRLLVSKLFEMEYARRREEELRRELAEQREVMRRLAKEYVLMGNDCITEAHDAHAAIRCYDKALTLYPDYVEALVRKGKTLAGLNEITTSLSTLNQAIAIAPMDFTARFTLGQVLEKFAYYEEALDAYRQADGLNSQSRSLLKRLIALCEELDEEDEANLYRIRLRKNRDQTGHK
protein production: failed

MTESKKLWTGHIHLGEKVDFGVILNQLCQAFNGSPFFSHNAMQMRVIDNQIEGYIDMQPYLIGNVAFQILHGGVAATLLDSIGGIVAMAEIYRRAEATEMAEAIKKVSRLATVDMRVDYLAPGRGQYFIARAEVLRFGRKGCTMRMNLINDENKAIATAIASYAF
protein production: failed

MKTKYIIASLGLATLLSFGANAAVHQVNAEQAQNLQPMGTISVSQIGSTPMDMRQEIVAKAEKAGANSYRIIELKEGDNWHATAELYKLEHHHHHH
protein production: failed

MMHISVGATEMSWLSSLKSVFSPSQEVKEDDVQTILQSYSLENSSFVLKDRITQINVEGRILQLTIKTFPEEADHLQQIHDELADALQKAGIQELNLHVIQQKTAPRTEPKSSSSTTSSSSHLPPVVDASASPTPDPNNPPIQKKAPIQSEVPAHPRIKNVILVSSGKGGVGKSTTTVNLALALQKQGLKVGVLDADIYGPSIPTMLGNAGRTPKIENENFVPLDAYGLAVLSIGHLTGDNNTPVAWRGPKATGALMQLFNQTLWPDLDVLVIDMPPGTGDIQLTLAQRIPVTGALIVTTPQNVALLDASKGIELFNRVGIPVVGVIENMSTHICSNCGFEEQIFGVGGGDKLSEQYDIPLLGRLPLNAQIRENADKGQPSVIAQDTAAESYQMIAQALWTRVEQLPQRARDDKRIFLEHHHHHH
protein production: failed

ARYLDVTSRRDPEHSHRTYYVTGQVFFASADRFTASFDLREKVETLAIDLREAHFWDITAVAALDKVVLKLRRAGISVDVVGMNRATATLVDRFGVHDKPDGIDSLMGH
protein production: failed

MSAKSKQYFNIFVFIISLIFFDQLSKYLVAKYVKLGSIYFSFFDDFFRIIHVRNTGILFSMGSNIHYSLKKIFFLAMPIFILIFVFYLSLKERNCIARISLLLIFSGGVGNVIDRLFRPSGVVDFLDLKFYGIFGLDRWPTFNFADSYVVIGMILFLVYDFFIKRKVLNK
protein production: failed

SSSSSSVPAYLGDEDLTQETRALISSLPKEKGWLVSEIYEFQGLWHTQAILQGILICQKRFEAKDSDIILVTNPKSGTTWLKALVFALLNRHKFPVSSSGNHPLLVTNPHLLVPFLEGVYYESPDFDFSSLPSPRLMNTHISHLSLPESVKSSSCKIVYCCRNPKDMFVSLWHFGKKLAPEETADYPIEKAVEAFCEGKFIGGPFWDHILEYWYASRENPNKVLFVTYEELKKQTEVEMKRIAEFLECGFIEEEEVREIVKLCSFESLSNLEVNKEGKLPNGIETKTFFRKGEIGGWRDTLSESLAEEIDRTIEEKFKGSGLKFSS
protein production: not failed

MAQLSARAREDPAAVVDCLPELRQELATLDPRPREHAAEVVATIAHHYPEAARTAVDDIRPLLSDANPGVRAEAARALAEVATTFPDAVYPSVCDLLDRLTDDHYESRVNAAWALAELATEQPAGLRPAVEALCGVLTDDVAAVRAGGVWALAELAEEYPEPVRNAVPALRRLLDDDATLVRVHAARALAVLAETHPDAVEPARVDLEAFGNGEPEDLRKAVTFALAQLDEQTTEAKATSTAGATIDDPLPEEEWIFGGSDTETTATSSGLSAGGIPETVPDVPTPDLSYDDLKKQTTVENGDLSAVYRAAASTENGTVPVALKELRPSDGATLDSDLAHEAYTEARRWEGLDDHDHIVTLVDYGREPTVWFAMEYMDAGHLAEVADSLAFEHRLWSALVLTRAIRRAHRAGILHLNLKPENVLFRTVDDGWAVPKISDWGMEIQPHQDDHDVVPRYAAPEQLADDGRTDGVTDVYQLGRAFYQLFTGRPAFETTPECPADIVEAEPPAPSDIASVPAAVGDIIRTAMAPSQPDRYGAVVYLQEELETICADHGVPTT
protein production: failed

MKSLEEKTIAKEQIFSGKVIDLYVEDVELPNGKASKREIVKHPGAVAVLAVTDEGKIIMVKQFRKPLERTIVEIPAGKLEKGEEPEYTALRELEEETGYTAKKLTKITAFYTSPGFADEIVHVFLAEELSVLEEKRELDEDEFVEVMEVTLEDALKLVESREVYDAKTAYAIQYLQLKEALQAQK
protein production: failed

MSLSVKILFKNATVFPITSRPFKGDVLVSNGKVEKVGENIEDPDAEIVDLTGKFLFPGFVDAHSHIGLFEEGVGYYYSDGNEATDPVTPHVKALDGFNPQDPAIERALAGGVTSVMIVPGSANPVGGQGSVIKFRSIIVEECIVKDPAGLKMAFGENPKRVYGERKQTPSTRMGTAGVIRDYFTKVKNYMKKKELAQKEGKEFTETDLKMEVGEMVLRKKIPARMHAHRADDILTAIRIAEEFGFNLVIEHGTEAYKISKVLAEKKIPVVVGPLLTFRTKLELKDLTMETIAKLLKDGVLIALMCDHPVIPLEFATVQAATAMRYGAKEEDLLKILTVNPAKILGLEDRIGSIEPGKDADLVVWSGHPFDMKSVVERVYIDGVEVFRREGHHHHHH
protein production: not failed

ERFQFAGSGGHQLAAALDLPDAQPLAYALFAHCFTCSKDNLAARRISAAMAARGIAVLRFDFTGLGASEGEFENATFSSNVADLVLAADHLRATHRAPTLLIGHSLGGAAVLAAAAQIPEAKAIATIAAPSDPSHVTGLFADDIETIRTEGRVNVSLAGRPFTIKREFLDDIAEHNLMAEIGKLHKALLILHAPTDDTVGIDNATKIFLAAKHPKSFVSLDHADHLLSDRRDANYAAGVIAAWAQRYIDAEPPAPTAGAPEVPR
protein production: failed

MTMQDILYYIHTYGLIVLFLIVVGEYCVPAMPTGIVMPAAGIIAGQAHKGIIKVMLISLIAGLVGSIILYLLGYFVGSTLLEKIKIKHPKIEDKLEKTEKILEKHSFLGIFICRLIPIIRTYVSLICGTVKVNFFKFIIFSIPGIFCWNFTGIVVGYFFGGKIRF
protein production: failed

MTNAEAVTVTNKQIIFPDYVTGFPKESDLKITTTTIDLRLPEGSTSVLVKNLYLSCDPYMRICMGKPDPLSSSLVPPYKTGVPIIGLGVSKVIDSGHPDYKKGDLLWGLVGWEEYSVITLTTYSHFKIEHTDVPLSYYTGLLGMPGMTAYAGFYEVCSPKKGETVFVSAASGAVGQLVGQFAKLMGCYVVGSAGSKEKVYLLKTKFGFDDAFNYKEEKDFSAALKRYFPEGIDIYFENVGGKMLDAVLINMKLHGRVAVCGMISQYNLVDPEGVHNLPTILYKRIQLQGFGVCDFYDKYPKFLDFVLPYIREGKITYVEDIAEGFESGPSALLGLFEGKNVGKQLFVVARE
protein production: failed

MRVLVLHSHPVEESYGKALYRQTVESLQKAGHMVDGCDLYEERFDPVLSRHDRLAYHDYPENLKLVESHVERLKAAEGLVICTPIWNFGFPAILKGYFDRVWLPGVSFELVNGKVESRLRHIRKLAAVLTYGATPFRAFAAGNPPKKIVKRVLRAQINPVRPVTFLAHYDMNNCTPETRAKFLARVGGAMERF
protein production: failed
